Assay results reported in the Human Domainome abundance scans (Beltran et al. 2025).
± gives the uncertainty stated by the source.

B1: Double-stranded RNA-specific adenosine deaminase, residues 296 to 358; numbered along this chain, P55265 (parent)
chain: MAEIKEKICDYLFNVSDSSALNLAKNIGLTKARDINAVLIDMERQGDVYRQGTTPPIWHLTDK

Variants of: B1
Test: abundance fitness (aPCA) (normalised: wild type 0, dead -1); higher = more abundant; growth selection in yeast, the domain comes from the species named
Details: Homo sapiens

Point of comparison: MAEIHEKICDYLFNVSDSSALNLAKNIGLTKARDINAVLIDMERQGDVYRQGTTPPIWHLTDK [K5H], abundance fitness -0.68 ± 0.1. Against it:
- MDEIKEKICDYLFNVSDSSALNLAKNIGLTKARDINAVLIDMERQGDVYRQGTTPPIWHLTDK [A2D] — higher, 0.207 ± 0.099
- MEEIKEKICDYLFNVSDSSALNLAKNIGLTKARDINAVLIDMERQGDVYRQGTTPPIWHLTDK [A2E] — higher, 0.3 ± 0.057
- MFEIKEKICDYLFNVSDSSALNLAKNIGLTKARDINAVLIDMERQGDVYRQGTTPPIWHLTDK [A2F] — within error, -0.471 ± 0.21
- MHEIKEKICDYLFNVSDSSALNLAKNIGLTKARDINAVLIDMERQGDVYRQGTTPPIWHLTDK [A2H] — higher, -0.151 ± 0.18
- MKEIKEKICDYLFNVSDSSALNLAKNIGLTKARDINAVLIDMERQGDVYRQGTTPPIWHLTDK [A2K] — higher, 0.168 ± 0.075
- MLEIKEKICDYLFNVSDSSALNLAKNIGLTKARDINAVLIDMERQGDVYRQGTTPPIWHLTDK [A2L] — higher, -0.096 ± 0.06
- MMEIKEKICDYLFNVSDSSALNLAKNIGLTKARDINAVLIDMERQGDVYRQGTTPPIWHLTDK [A2M] — higher, 0.045 ± 0.071
- MNEIKEKICDYLFNVSDSSALNLAKNIGLTKARDINAVLIDMERQGDVYRQGTTPPIWHLTDK [A2N] — higher, 0.051 ± 0.078
- MPEIKEKICDYLFNVSDSSALNLAKNIGLTKARDINAVLIDMERQGDVYRQGTTPPIWHLTDK [A2P] — higher, -0.335 ± 0.078
- MQEIKEKICDYLFNVSDSSALNLAKNIGLTKARDINAVLIDMERQGDVYRQGTTPPIWHLTDK [A2Q] — higher, 0.023 ± 0.092
- MREIKEKICDYLFNVSDSSALNLAKNIGLTKARDINAVLIDMERQGDVYRQGTTPPIWHLTDK [A2R] — higher, 0.004 ± 0.048
- MSEIKEKICDYLFNVSDSSALNLAKNIGLTKARDINAVLIDMERQGDVYRQGTTPPIWHLTDK [A2S] — higher, -0.024 ± 0.063
- MTEIKEKICDYLFNVSDSSALNLAKNIGLTKARDINAVLIDMERQGDVYRQGTTPPIWHLTDK [A2T] — higher, -0.152 ± 0.086
- MVEIKEKICDYLFNVSDSSALNLAKNIGLTKARDINAVLIDMERQGDVYRQGTTPPIWHLTDK [A2V] — higher, -0.247 ± 0.059
- MWEIKEKICDYLFNVSDSSALNLAKNIGLTKARDINAVLIDMERQGDVYRQGTTPPIWHLTDK [A2W] — higher, -0.18 ± 0.064
- MAAIKEKICDYLFNVSDSSALNLAKNIGLTKARDINAVLIDMERQGDVYRQGTTPPIWHLTDK [E3A] — higher, -0.369 ± 0.074
- MAFIKEKICDYLFNVSDSSALNLAKNIGLTKARDINAVLIDMERQGDVYRQGTTPPIWHLTDK [E3F] — within error, -0.561 ± 0.11
- MAGIKEKICDYLFNVSDSSALNLAKNIGLTKARDINAVLIDMERQGDVYRQGTTPPIWHLTDK [E3G] — higher, -0.18 ± 0.056
- MAHIKEKICDYLFNVSDSSALNLAKNIGLTKARDINAVLIDMERQGDVYRQGTTPPIWHLTDK [E3H] — higher, -0.285 ± 0.075
- MAIIKEKICDYLFNVSDSSALNLAKNIGLTKARDINAVLIDMERQGDVYRQGTTPPIWHLTDK [E3I] — higher, -0.457 ± 0.098
- MAKIKEKICDYLFNVSDSSALNLAKNIGLTKARDINAVLIDMERQGDVYRQGTTPPIWHLTDK [E3K] — higher, -0.21 ± 0.061
- MALIKEKICDYLFNVSDSSALNLAKNIGLTKARDINAVLIDMERQGDVYRQGTTPPIWHLTDK [E3L] — within error, -0.552 ± 0.055
- MAMIKEKICDYLFNVSDSSALNLAKNIGLTKARDINAVLIDMERQGDVYRQGTTPPIWHLTDK [E3M] — within error, -0.621 ± 0.15
- MANIKEKICDYLFNVSDSSALNLAKNIGLTKARDINAVLIDMERQGDVYRQGTTPPIWHLTDK [E3N] — higher, -0.196 ± 0.078
- MAPIKEKICDYLFNVSDSSALNLAKNIGLTKARDINAVLIDMERQGDVYRQGTTPPIWHLTDK [E3P] — higher, -0.383 ± 0.077
- MAQIKEKICDYLFNVSDSSALNLAKNIGLTKARDINAVLIDMERQGDVYRQGTTPPIWHLTDK [E3Q] — higher, -0.368 ± 0.11
- MARIKEKICDYLFNVSDSSALNLAKNIGLTKARDINAVLIDMERQGDVYRQGTTPPIWHLTDK [E3R] — higher, -0.334 ± 0.05
- MASIKEKICDYLFNVSDSSALNLAKNIGLTKARDINAVLIDMERQGDVYRQGTTPPIWHLTDK [E3S] — higher, -0.213 ± 0.045
- MATIKEKICDYLFNVSDSSALNLAKNIGLTKARDINAVLIDMERQGDVYRQGTTPPIWHLTDK [E3T] — higher, -0.159 ± 0.059
- MAVIKEKICDYLFNVSDSSALNLAKNIGLTKARDINAVLIDMERQGDVYRQGTTPPIWHLTDK [E3V] — higher, -0.471 ± 0.081
- MAWIKEKICDYLFNVSDSSALNLAKNIGLTKARDINAVLIDMERQGDVYRQGTTPPIWHLTDK [E3W] — higher, -0.147 ± 0.054
- MAYIKEKICDYLFNVSDSSALNLAKNIGLTKARDINAVLIDMERQGDVYRQGTTPPIWHLTDK [E3Y] — higher, -0.298 ± 0.059
- MAEAKEKICDYLFNVSDSSALNLAKNIGLTKARDINAVLIDMERQGDVYRQGTTPPIWHLTDK [I4A] — higher, -0.37 ± 0.048
- MAECKEKICDYLFNVSDSSALNLAKNIGLTKARDINAVLIDMERQGDVYRQGTTPPIWHLTDK [I4C] — lower, -0.995 ± 0.092
- MAEDKEKICDYLFNVSDSSALNLAKNIGLTKARDINAVLIDMERQGDVYRQGTTPPIWHLTDK [I4D] — higher, -0.121 ± 0.058
- MAEEKEKICDYLFNVSDSSALNLAKNIGLTKARDINAVLIDMERQGDVYRQGTTPPIWHLTDK [I4E] — higher, -0.287 ± 0.075
- MAEFKEKICDYLFNVSDSSALNLAKNIGLTKARDINAVLIDMERQGDVYRQGTTPPIWHLTDK [I4F] — within error, -0.649 ± 0.082
- MAEGKEKICDYLFNVSDSSALNLAKNIGLTKARDINAVLIDMERQGDVYRQGTTPPIWHLTDK [I4G] — higher, -0.435 ± 0.043
- MAEHKEKICDYLFNVSDSSALNLAKNIGLTKARDINAVLIDMERQGDVYRQGTTPPIWHLTDK [I4H] — higher, -0.227 ± 0.064
- MAEKKEKICDYLFNVSDSSALNLAKNIGLTKARDINAVLIDMERQGDVYRQGTTPPIWHLTDK [I4K] — higher, -0.2 ± 0.084
- MAELKEKICDYLFNVSDSSALNLAKNIGLTKARDINAVLIDMERQGDVYRQGTTPPIWHLTDK [I4L] — higher, 0.146 ± 0.03
- MAEMKEKICDYLFNVSDSSALNLAKNIGLTKARDINAVLIDMERQGDVYRQGTTPPIWHLTDK [I4M] — higher, -0.217 ± 0.056
- MAENKEKICDYLFNVSDSSALNLAKNIGLTKARDINAVLIDMERQGDVYRQGTTPPIWHLTDK [I4N] — higher, -0.327 ± 0.059
- MAEPKEKICDYLFNVSDSSALNLAKNIGLTKARDINAVLIDMERQGDVYRQGTTPPIWHLTDK [I4P] — within error, -0.551 ± 0.061
- MAEQKEKICDYLFNVSDSSALNLAKNIGLTKARDINAVLIDMERQGDVYRQGTTPPIWHLTDK [I4Q] — higher, -0.327 ± 0.068
- MAERKEKICDYLFNVSDSSALNLAKNIGLTKARDINAVLIDMERQGDVYRQGTTPPIWHLTDK [I4R] — higher, -0.387 ± 0.043
- MAESKEKICDYLFNVSDSSALNLAKNIGLTKARDINAVLIDMERQGDVYRQGTTPPIWHLTDK [I4S] — higher, -0.311 ± 0.04
- MAETKEKICDYLFNVSDSSALNLAKNIGLTKARDINAVLIDMERQGDVYRQGTTPPIWHLTDK [I4T] — higher, -0.24 ± 0.054
- MAEVKEKICDYLFNVSDSSALNLAKNIGLTKARDINAVLIDMERQGDVYRQGTTPPIWHLTDK [I4V] — higher, -0.293 ± 0.042
- MAEWKEKICDYLFNVSDSSALNLAKNIGLTKARDINAVLIDMERQGDVYRQGTTPPIWHLTDK [I4W] — within error, -0.666 ± 0.07
- MAEYKEKICDYLFNVSDSSALNLAKNIGLTKARDINAVLIDMERQGDVYRQGTTPPIWHLTDK [I4Y] — higher, -0.398 ± 0.063
- MAEIAEKICDYLFNVSDSSALNLAKNIGLTKARDINAVLIDMERQGDVYRQGTTPPIWHLTDK [K5A] — higher, -0.428 ± 0.058
- MAEICEKICDYLFNVSDSSALNLAKNIGLTKARDINAVLIDMERQGDVYRQGTTPPIWHLTDK [K5C] — within error, -0.924 ± 0.15
- MAEIEEKICDYLFNVSDSSALNLAKNIGLTKARDINAVLIDMERQGDVYRQGTTPPIWHLTDK [K5E] — within error, -0.666 ± 0.22
- MAEIFEKICDYLFNVSDSSALNLAKNIGLTKARDINAVLIDMERQGDVYRQGTTPPIWHLTDK [K5F] — higher, -0.449 ± 0.066
- MAEIGEKICDYLFNVSDSSALNLAKNIGLTKARDINAVLIDMERQGDVYRQGTTPPIWHLTDK [K5G] — within error, -0.616 ± 0.084
- MAEIIEKICDYLFNVSDSSALNLAKNIGLTKARDINAVLIDMERQGDVYRQGTTPPIWHLTDK [K5I] — within error, -0.512 ± 0.081
- MAEIMEKICDYLFNVSDSSALNLAKNIGLTKARDINAVLIDMERQGDVYRQGTTPPIWHLTDK [K5M] — within error, -0.574 ± 0.082
- MAEINEKICDYLFNVSDSSALNLAKNIGLTKARDINAVLIDMERQGDVYRQGTTPPIWHLTDK [K5N] — within error, -0.555 ± 0.097
